Sequences and labels used below:
B1: HuMab-CD74-011-vcMMAE (antibody, IgG1, V domains shown)
VH: QVQLVESGGGVVQPGRSLRLSCAASGFTFSSYGMHWVRQAPDKGLEWVAVIWYDGSNKYYADSVKGRFTISRDNSKNTLYLQMNSLRAEDTAVYYCARGGTLVRGAMYGTDVWGQGTTVTVSS
VL: DIQMTQSPSSLSASVGDRVTITCRASQGISSWLAWYQQKPEKAPKSLIYAASSLQSGVPSRFSGSGSGTDFTLTISSLQPEDFATYYCQQYNSYPLTFGGGTKVEIK
modifications: drug-linker vcMMAE alkylated to the cysteines of the reduced antibody (DAR 3.8-3.9)
notes: Antibody-drug conjugate of HuMab-CD74-011 (IgG1,kappa); also called vcMMAE-conjugated HuMab-CD74-011
B2: HuMab-CD74-011-mcMMAF (antibody, IgG1, V domains shown)
VH: B1 VH
VL: B1 VL
modifications: drug-linker mcMMAF alkylated to the cysteines of the reduced antibody (DAR 3.9 by HIC)
notes: Antibody-drug conjugate of HuMab-CD74-011 (IgG1,kappa)
B3: HuMab-CD74-006-mcMMAF (antibody, IgG1, V domains shown)
VH: QVQLVESGGGVVQPGRSLRLSCAASGFTFSSYAMHWVRQAPGKGLEWVAVISYDGSIKYYADSVKGRFTISRDNSKNTLYLQMNSLRVEDTAVFYCARGREITSQNIVILLDYWGQGTLVTVTS
VL: B1 VL
modifications: drug-linker mcMMAF alkylated to the cysteines of the reduced antibody (DAR 3.7-4.1)
notes: Antibody-drug conjugate of HuMab-CD74-006 (IgG1,kappa)
B4: HuMab-CD74-005 (antibody, human IgG1, V domains shown)
VH: QVQLVESGGGVVQPGRSLRLSCAASGFTFSSYAMHWVRQAPGKGLEWVAVISYDGSNKYYADSVKGRFTISRDNSKNTLYLQMNSLRAEDTAVYYCASGRYYGSGSYSSYFDYWGQGTLVTVSS
VL: B1 VL with Y36F
notes: Human IgG1,kappa; produced transiently in HEK-293F cells; also called antibody 005
B5: HuMab-CD74-005-vcMMAE (antibody, IgG1, V domains shown)
VH: B4 VH
VL: B1 VL with Y36F
modifications: drug-linker vcMMAE alkylated to the cysteines of the reduced antibody (DAR 3.9-4.0)
notes: Antibody-drug conjugate of HuMab-CD74-005 (IgG1,kappa); also called vcMMAE-conjugate of HuMab-CD74-005
B6: HuMab-CD74-005-mcMMAF (antibody, IgG1, V domains shown)
VH: B4 VH
VL: B1 VL with Y36F
modifications: drug-linker mcMMAF alkylated to the cysteines of the reduced antibody (DAR 3.9-4.0)
notes: Antibody-drug conjugate of HuMab-CD74-005 (IgG1,kappa); also called mcMMAF-conjugate of HuMab-CD74-005
B7: HuMab-CD74-006-vcMMAE (antibody, IgG1, V domains shown)
VH: B3 VH
VL: B1 VL
modifications: drug-linker vcMMAE alkylated to the cysteines of the reduced antibody (DAR 4.0)
notes: Antibody-drug conjugate of HuMab-CD74-006 (IgG1,kappa); also called vcMMAE-conjugated HuMab-CD74-006
B8: HuMab-CD74-008 (antibody, V domains shown)
VH: B3 VH with I57N, V88A, F94Y, T123S
VL: B1 VL
notes: Human IgG,kappa antibody (HuMab) produced transiently in HEK-293F cells; also called antibody 008

Changes are numbered by the printed parent chain.

In one test the target is human CD74, naturally expressed on cells (Raji, Daudi, M4A4, NCI-H747 cells; human tonsil tissue) (human) (UniProt P04233). The test can be described thus: FACS on Daudi cells, 10 µg/mL; mean of three experiments.
The molecule B1 registered a Maximal binding (MFI at 10 µg/mL) of 3790 MFI.
Regarding B2, the Maximal binding (MFI at 10 µg/mL) is 5330 MFI.
Molecule B3 gave a Maximal binding (MFI at 10 µg/mL) of 4050 MFI.
Same read-out and setting: the figure for B4 is 2780 MFI; for B5 it is 2860 MFI.
Same read-out and setting: as for B6, the figure is 2530 MFI.
Still for that read-out and setting: as for B7, the figure is 3280 MFI.

The target is the same in the next test. The test can be described thus: FACS on Daudi cells; mean of three experiments.
What is called EC50 is the midpoint of the concentration-response curve. Turning to B1, the EC50 came to 0.05 µg/mL.
Turning to B2, the EC50 was 0.05 µg/mL.
Still for that read-out and setting: as for B3, the figure is 0.03 µg/mL; as for B4, 1.27 µg/mL; as for B5, 0.26 µg/mL.
B6 had an EC50 of 1.05 µg/mL.
On to B7, for which the 50% effective concentration (EC50) came to 0.03 µg/mL.

In another test the target is T1, HisCD74v2 (recombinant extracellular domain of human CD74 variant 2, N-terminal hexameric His tag) (human, UniProt P04233 73-296).
T1 construct: also called recombinant CD74v2; CD74v2 extracellular domain
T1 sequence: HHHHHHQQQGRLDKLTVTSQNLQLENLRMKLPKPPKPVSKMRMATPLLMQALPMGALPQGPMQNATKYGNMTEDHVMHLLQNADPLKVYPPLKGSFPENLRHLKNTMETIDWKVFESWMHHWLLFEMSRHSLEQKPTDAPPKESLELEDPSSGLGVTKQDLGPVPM
The test is described as follows: ELISA, coated recombinant CD74v2 extracellular domain. How it is done:
(§1) ELISA plates (Greiner BioOne) were coated 0/N at 4° C. with 2 μg/mL, 100 μL per well, recombinant CD74v1 or CD74v2 in PBS (B. Braun Melsungen AG). Sequences and production of the isoforms were described supra. ELISA wells were washed three times with PBS containing 0.05% Tween-20 (PBST), emptied, and blocked with 1% (w/v) BSA fraction V (Roche) in PBS at RT for 1 h while shaking (300 rpm), and emptied. Subsequently, 100 μL anti-CD74 HuMab antibodies were added in serial dilutions in 0.2% (w/v) BSA fraction V in PBST (assay buffer) and incubated while shaking at RT for 90 min. ELISA plates were washed three times with PBST, emptied, and bound HuMab antibodies were detected using HRP-conjugated goat-anti human IgG (100 μL; 1:5,000; Peroxidase Affinipure Goat anti-human IgG, F(ab′)2 Fragment Specific [min X Bov,Hrs,Ms Sr Prot]; Jackson Immunoresearch) in assay buffer and incubated while shaking at RT for 90 min. Plates were washed three times with PBST, emptied, and incubated with 100 μL ABTS solution (50 ml ABTS buffer [Roche] and one ABTS tablet [50 mg; Roche]). After incubation in the dark at RT for 30 min, the reaction was stopped by addition of 100 μL per well oxalic acid (2% [w/v]). Plates were measured at OD 405 nm in an ELISA reader (Biotek Instruments, EL808 Absorbance Microplate Reader).
(§2) Isotype control Ab IgG1-b12 was used as a negative control. Binding curves were analyzed using non-linear regression (sigmoidal dose-response with variable slope) using GraphPad Prism 5 software (GraphPad Software, San Diego, Calif., USA).
Background: An ELISA detects its analyte on a solid surface through an enzyme-linked reagent.
As to B8, the EC50 amounted to 0.759 µg/mL.

For a further test, the target named is human CD74, naturally expressed on cells (Raji, Daudi, M4A4, NCI-H747 cells; human tonsil tissue) (human) (UniProt P04233). The test can be described thus: cell-based or functional assay.
As for IgG1-b12 (antibody), the % viability (minimal) of Raji cells, anti-kappa-ETA' assay turned out to be 85.9%.
B1 displayed a % kill of Daudi cells at 10 µg/mL of 86%, a % kill of M4A4 cells at 10 µg/mL of 100%, a % kill of NCI-H747 cells at 10 µg/mL of 40% and a % kill of Raji cells at 10 µg/mL of 89%. The molecule also gave an IC50 of killing of Daudi cells of 0.02 µg/mL, an IC50 of killing of M4A4 cells of 0.32 µg/mL, an IC50 of killing of NCI-H747 cells of 7.91 µg/mL and an IC50 of killing of Raji cells of 0.04 µg/mL.
B2: the % kill of Daudi cells at 10 µg/mL was 92%, the % kill of M4A4 cells at 10 µg/mL turned out to be 96%, the % kill of NCI-H747 cells at 10 µg/mL is 17% and the % kill of Raji cells at 10 µg/mL is 92%. The IC50 of killing of Daudi cells is 0.01 µg/mL, the IC50 of killing of M4A4 cells worked out at 0.1 µg/mL and the IC50 of killing of Raji cells worked out at 0.01 µg/mL.
In turn, B3 displayed a % kill of Daudi cells at 10 µg/mL of 93%, a % kill of M4A4 cells at 10 µg/mL of 97%, a % kill of NCI-H747 cells at 10 µg/mL of 21% and a % kill of Raji cells at 10 µg/mL of 93%. The molecule further showed an IC50 of killing of Daudi cells of 0.01 µg/mL, an IC50 of killing of M4A4 cells of 0.12 µg/mL and an IC50 of killing of Raji cells of 0.01 µg/mL.
As to B5, the % kill of Daudi cells at 10 µg/mL was found to be 85%, the % kill of M4A4 cells at 10 µg/mL was 100%, the % kill of NCI-H747 cells at 10 µg/mL stood at 41% and the % kill of Raji cells at 10 µg/mL worked out at 88%. This molecule had an IC50 of killing of Daudi cells of 0.08 µg/mL, an IC50 of killing of M4A4 cells of 0.56 µg/mL, an IC50 of killing of NCI-H747 cells of 7.48 µg/mL and an IC50 of killing of Raji cells of 0.11 µg/mL.
The molecule B6 yielded a % kill of Daudi cells at 10 µg/mL of 90%, a % kill of M4A4 cells at 10 µg/mL of 97%, a % kill of NCI-H747 cells at 10 µg/mL of 5% and a % kill of Raji cells at 10 µg/mL of 92%. The IC50 of killing of Daudi cells is 0.03 µg/mL, the IC50 of killing of M4A4 cells is 0.38 µg/mL and the IC50 of killing of Raji cells was 0.05 µg/mL.
Regarding B7, the % kill of Daudi cells at 10 µg/mL amounted to 85%, the % kill of M4A4 cells at 10 µg/mL came to 100%, the % kill of NCI-H747 cells at 10 µg/mL turned out to be 49% and the % kill of Raji cells at 10 µg/mL amounted to 90%. This molecule came in with an IC50 of killing of Daudi cells of 0.03 µg/mL, an IC50 of killing of M4A4 cells of 0.28 µg/mL, an IC50 of killing of NCI-H747 cells of 6.12 µg/mL and an IC50 of killing of Raji cells of 0.05 µg/mL.

A further test has as its target T2, HisCD74v1 (recombinant extracellular domain of human CD74 variant 1, N-terminal hexameric His tag) (human, UniProt P04233 73-296).
T2 construct: also called recombinant CD74v1; CD74v1 extracellular domain
T2 sequence: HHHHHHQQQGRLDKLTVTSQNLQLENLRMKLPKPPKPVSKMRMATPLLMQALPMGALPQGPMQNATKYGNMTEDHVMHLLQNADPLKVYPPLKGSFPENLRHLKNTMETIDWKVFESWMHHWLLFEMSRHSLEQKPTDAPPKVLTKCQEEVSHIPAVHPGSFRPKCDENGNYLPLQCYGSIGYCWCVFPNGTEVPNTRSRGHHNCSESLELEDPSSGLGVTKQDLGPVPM
The test can be described thus: ELISA, coated recombinant CD74v1 extracellular domain (CD74ECDHis); mean of four experiments. How it is done: ELISA plates (Greiner BioOne) were coated with 2 μg/mL, 100 μL per well, recombinant CD74ECDHis in PBS (B. Braun Melsungen AG) at 4° C., 0/N. ELISA plates were emptied and blocked with 200 μL/well PBS containing 0.05% Tween-20 (PBST) while shaking (300 rpm), at RT for 1 hour, washed three times with 300 μL PBST and emptied. Subsequently, 100 μL anti-CD74 ADCs or unconjugated CD74-specific HuMab antibodies were added in serial dilutions in PBST and incubated while shaking at RT for 2 hours. ELISA plates were washed with PBST and emptied. Bound anti-CD74 ADCs and unconjugated HuMab antibodies were detected by addition of HRP-conjugated mouse-anti human IgG1 (100 μL; 0.015 μg/mL; Sanquin; # M1328) in PBST and incubation while shaking, at RT for 2 hours. Plates were washed with PBST, emptied and incubated with 100 μL ABTS solution (50 ml ABTS buffer [Roche] and one ABTS tablet [50 mg; Roche]). After incubation in the dark while shaking, at RT for 30 min, the reaction was stopped by incubation with 100 μL per well oxalic acid (2% [w/v]; Riedel de Haen) in the dark while shaking, for 10 min. Plates were measured at OD 405 nm in an ELISA reader (Biotek Instruments, EL808 Absorbance Microplate Reader).
IgG1-b12, an antibody binding to a non-related antigen, was used as a negative control (both unconjugated as well as in ADC format). Binding curves were analyzed by non-linear regression (sigmoidal dose-response with variable slope) using GraphPad Prism 5 software (GraphPad Software, San Diego, Calif., USA).
Regarding B1, the EC50 amounted to 0.03 µg/mL.
As to B2, the EC50 is 0.02 µg/mL.
On the same count and under the same terms, the figure for B3 is 0.02 µg/mL.
On to B4, for which the EC50 was determined as 0.03 µg/mL.
On the same count and under the same terms, the figure for B5 is 0.04 µg/mL; for B6 it is 0.04 µg/mL.
Same read-out and setting: as for B7, the figure is 0.03 µg/mL.

A further test addresses T2, HisCD74v1 (recombinant extracellular …). The test can be described thus: ELISA, coated recombinant CD74v1 extracellular domain. How it is done:
as §1, §2
Take B8: the EC50 came out at 1.39 µg/mL.

Another test deals with human CD74, naturally expressed on cells (Raji, Daudi, M4A4, NCI-H747 cells; human tonsil tissue) (human) (UniProt P04233). The test is described as follows: FACS on Daudi cells at 0° C., Alexa-488-labeled antibody displaced by excess unlabeled antibody.
Broadly, the koff is a measure of how fast the partners let go of each other. The molecule B8 gave a koff of 0.00333 s⁻¹ and a time until half of the bound labeled antibody was replaced of 4 min.

These data come from patent publication US20170173151A1 (Genmab, published 2017).
